The data set concerns the target DDX43 (Mus musculus, UniProt D3Z6P9 1-646). The data set can be described thus: EMSA; EMSA: 10 nM biotin-RNA, 50 mM Tris-HCl pH 7.5, 100 mM KCl, 2.5% glycerol, 0.05% NP-40, 4 mM EDTA, 1 mM DTT, RiboLock 2 U, 37 C 30 min; 8% native TBE PAGE at 4 C; G4 folded in 50 mM Tris-HCl pH 7.5, 150 mM KCl, 0.1 mM EDTA. Conditions: protein: recombinant; tags: His tag (Ni-NTA, pET28a); label: 3' biotin; single strand. Background: In EMSA bound probe runs differently from free probe, usually more slowly.

Sequence of DDX43 (D3Z6P9 entry or part of it): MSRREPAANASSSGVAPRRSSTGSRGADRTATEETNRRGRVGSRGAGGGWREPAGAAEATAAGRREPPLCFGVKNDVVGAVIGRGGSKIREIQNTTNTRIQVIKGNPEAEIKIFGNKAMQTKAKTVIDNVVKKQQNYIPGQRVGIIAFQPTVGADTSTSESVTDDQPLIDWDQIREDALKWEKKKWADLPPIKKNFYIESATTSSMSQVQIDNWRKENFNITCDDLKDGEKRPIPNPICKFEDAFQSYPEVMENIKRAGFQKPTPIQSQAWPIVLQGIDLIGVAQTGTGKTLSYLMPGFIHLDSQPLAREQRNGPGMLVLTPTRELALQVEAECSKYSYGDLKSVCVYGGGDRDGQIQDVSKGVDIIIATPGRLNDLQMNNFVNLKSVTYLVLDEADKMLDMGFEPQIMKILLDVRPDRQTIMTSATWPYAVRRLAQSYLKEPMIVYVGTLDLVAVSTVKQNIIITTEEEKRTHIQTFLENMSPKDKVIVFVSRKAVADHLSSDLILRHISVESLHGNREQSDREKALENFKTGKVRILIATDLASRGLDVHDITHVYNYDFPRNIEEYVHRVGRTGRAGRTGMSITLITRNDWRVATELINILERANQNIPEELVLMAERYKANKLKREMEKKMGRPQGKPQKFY

ACCGCUGCCGUCGCUCCG (ssRNA) [ssRNA]: the binding result is on record as “no binding”.

The record behind these values is paper PMC10294715, “Single-cell RNA-seq uncovers dynamic processes orchestrated by RNA-binding protein DDX43 in chromatin remodeling during spermiogenesis”.
